± gives the standard deviation of the averaged measurements.
The sequences below were run on ATP (assay: switch fluorescence ratio, 500 uM ATP over buffer (Cy3 cluster intensity, sum of 5 cycles each) (fold (ratio)); higher = stronger signal-on switching upon ATP binding; sequences stand for … in TCGTCGGCAGCGTCAGATGTGTATAAGAGACAGTTTTTTTTTTTTTTTTTTTTTTTTT…TC). Settings: aptamer strand: ATP DNA aptamer (quencher-CACCTGGGGGAGTATTGCGGAGGAAGG + anchor), 100 nM annealed; ATP concentration: 500 uM.
Summary of the method: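 After annealing to 100 nM quencher-labelled ATP aptamer, Cy3-labelled switching-strand clusters on a modified Illumina MiSeq flow-cell were imaged in selection buffer. A second image followed after 15 min with 500 uM ATP at 22 °C, and five such buffer/ATP cycles were done, each separated by NaOH stripping and re-annealing. The fluorescence ratio, averaged per switch-domain sequence, is summed target-cycle over summed buffer-cycle Cy3 intensity per cluster, with clusters outside 100-1000 RFU excluded.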
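Also: ATP exposure 15 min at 22 °C before imaging.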

| Sequence | switch fluorescence ratio |
| --- | --- |
| GCCCGTTTTT | 1 ± 0.029 |
| CATTCTGACG | 1.18 ± 0.033 |
| CAATATAGTG | 0.981 ± 0.024 |
| ATATTGATAT | 1.01 ± 0.021 |
| GGAGAGGGCT | 1.01 ± 0.024 |
| GCGTATGGAC | 1.01 ± 0.02 |
| GATCACTCGT | 1 ± 0.048 |
| GGGGGAAAGC | 0.984 ± 0.049 |
| TTGTGACATA | 1 ± 0.023 |
| TACGAGGGTC | 0.969 ± 0.024 |
| TGTGGTTTTG | 0.9586 ± 0.0042 |
| TTTACAGAGT | 1.06 ± 0.12 |
| ATGGGTTACG | 1 ± 0.033 |
| TGTAAAGGGT | 0.9778 ± 0.0084 |
| CAGAGGTCGT | 1.013 ± 0.0081 |
| AATGGTATTC | 0.998 ± 0.025 |
| CAAACGAGGT | 0.994 ± 0.026 |
| TTTAAACTT | 1.63 ± 1.1 |
| GAAGGTGGCT | 1.01 ± 0.026 |
| GTCATAAGTG | 0.982 ± 0.04 |
| TAGATATTTA | 1.01 ± 0.0087 |
| TTAAGTTGTT | 0.965 ± 0.016 |
| TGAGTTTTTG | 0.998 ± 0.022 |

| Sequence | switch fluorescence ratio |
| --- | --- |
| GCGGGAGATA | 1.01 ± 0.037 |
| TACCGGGGC | 1.06 ± 0.033 |
| ACATGTGTTT | 1.03 ± 0.028 |
| CCGGTGGGGA | 1.12 ± 0.064 |
| ACGTTAGTCG | 0.9687 ± 0.0095 |
| GGGGAAAGTC | 1 ± 0.032 |
| TAAGGATTGT | 1.032 ± 0.0063 |
| CTGGTTGGGT | 1.01 ± 0.027 |
| CATGGGGTTA | 1.04 ± 0.048 |
| ATTATGTTCT | 1.01 ± 0.013 |
| CGTCGCTTTT | 1.022 ± 0.0052 |
| TTTTGTTTCG | 1.01 ± 0.028 |
| TGGATTAAGG | 1.03 ± 0.033 |
| GGGTGGGGGG | 1.01 ± 0.037 |
| GGCTAGACGT | 1.031 ± 0.0023 |
| TCTCTTCAGC | 1 ± 0.0026 |
| TTTTTAAGAG | 1 ± 0.014 |
| TTTCACGAGC | 0.993 ± 0.091 |
| GCGAGGGATT | 1.02 ± 0.032 |
| TTAAGGTTGG | 0.993 ± 0.031 |
| ATGGGCTAGC | 1.009 ± 0.0014 |
| CTCGCCGGGG | 1.06 ± 0.013 |
| AAATAAAAAG | 1.01 ± 0.027 |

| Sequence | switch fluorescence ratio |
| --- | --- |
| ACTTTGTCAT | 0.981 ± 0.017 |
| AGCGAAATCT | 1.08 ± 0.03 |
| GCTTCTCACA | 0.981 ± 0.028 |
| AATAGCATGT | 0.981 ± 0.012 |
| GGAACTTGTG | 0.9732 ± 0.0075 |
| CGGTAGCGGG | 1.008 ± 0.007 |
| CTTGTGGCGT | 1 ± 0.049 |
| ATATCCGTCA | 1.05 ± 0.051 |
| GGGGAGACTG | 0.956 ± 0.028 |
| CTGGGGATTA | 0.972 ± 0.031 |
| GGCAGGGGCT | 1 ± 0.044 |
| ATTAATGTGA | 1 ± 0.031 |
| TCGGCTTTTT | 0.999 ± 0.025 |
| GTTAGTTTGC | 1.01 ± 0.021 |
| AGATGAAGTG | 0.99 ± 0.019 |
| GAGTTAGGGC | 0.99 ± 0.011 |
| AATGATTGGG | 0.977 ± 0.02 |
| TATCTAAATA | 1.007 ± 0.007 |
| GTGTACTGGG | 0.993 ± 0.017 |
| TTTTTTTTCA | 1.01 ± 0.053 |
| TATGGCGACA | 1.01 ± 0.087 |
| GGGGGATTTG | 0.998 ± 0.013 |
| TGGCCGGGAT | 0.996 ± 0.021 |

| Sequence | switch fluorescence ratio |
| --- | --- |
| AACATTGTTT | 1.01 ± 0.016 |
| TCGAGTAGGG | 0.995 ± 0.016 |
| TTAGTATTTT | 1.02 ± 0.087 |
| GAGCTACCCG | 1.04 ± 0.031 |
| TGTCGTGTTT | 0.9679 ± 0.0014 |
| GTACTGTAGG | 1 ± 0.026 |
| ACGGACGGGG | 1.11 ± 0.036 |
| GGTCGGGGCG | 1.02 ± 0.071 |
| CGCTCTTGGA | 0.976 ± 0.031 |
| GATATTTTTA | 0.98 ± 0.034 |
| TGTTTCTAGG | 0.979 ± 0.029 |
| TTATACCAAG | 1.03 ± 0.023 |
| CAGCCGGATG | 1.02 ± 0.028 |
| TAGGCGTGTC | 0.992 ± 0.016 |
| GAAAGGGCTC | 1.09 ± 0.069 |
| ATATGGACGC | 1.01 ± 0.046 |
| GTGAGAAAGG | 0.982 ± 0.015 |
| CCGGTGTCTG | 1.05 ± 0.09 |
| CTAGTCAGGT | 1.018 ± 0.0012 |
| AGTGGGAACA | 1.01 ± 0.017 |
| GAGTAAAGTC | 0.934 ± 0.029 |
| TAATTGCGGG | 0.9554 ± 0.0095 |
| CATAACTATT | 0.989 ± 0.015 |

| Sequence | switch fluorescence ratio |
| --- | --- |
| CTTTGCACGA | 1.1 ± 0.0077 |
| TCCAGATCAT | 0.993 ± 0.018 |
| ACCGGCACAT | 1.273 ± 0.0092 |
| CAGTCCTGTA | 1 ± 0.042 |
| CATGTACTTT | 1.08 ± 0.031 |
| CAGTTTAAGG | 1.01 ± 0.024 |
| GGGGGGGCCA | 1.01 ± 0.041 |
| TTACGTAATA | 1.34 ± 0.023 |
| GGTTTTGAAG | 0.9959 ± 0.0063 |
| ACTGGGTCGA | 1.04 ± 0.034 |
| TTGTACTTGG | 1.04 ± 0.072 |
| TGAGGCCGAA | 1.015 ± 0.0088 |
| AATTAATGGT | 0.978 ± 0.011 |
| TCGGGGTGGG | 1.03 ± 0.043 |
| TCTTTTTTTA | 1.02 ± 0.06 |
| GTTATATGAC | 0.999 ± 0.012 |
| CGGTCAAGGT | 1.003 ± 0.0076 |
| AGACGCCAAG | 1.01 ± 0.029 |
| TACTGTTCGA | 1.05 ± 0.016 |
| TTTTTGTTC | 0.99 ± 0.023 |
| GGGTAAAGAA | 1.01 ± 0.036 |
| TGACGAAGCG | 1.05 ± 0.035 |
| GCTTGGGTTC | 1 ± 0.018 |

| Sequence | switch fluorescence ratio |
| --- | --- |
| TACCTAGGGG | 1.06 ± 0.039 |
| TGATGCTCGG | 0.996 ± 0.069 |
| AATCTGGGAG | 0.996 ± 0.015 |
| ATTTTTATGA | 0.967 ± 0.015 |
| CATTGTAATT | 0.981 ± 0.011 |
| TGTAGGCGGC | 1.02 ± 0.015 |
| AATTAATTAA | 1.004 ± 0.01 |
| GGGAGGTTGC | 1.09 ± 0.23 |
| ATGGCGTAGT | 0.975 ± 0.036 |
| GGGAGGGCGT | 0.981 ± 0.034 |
| GAGATTGGTT | 1.007 ± 0.0072 |
| ATGAAAAGGG | 1 ± 0.022 |
| CGGTCGCGTG | 0.988 ± 0.02 |
| TCTTGAATAA | 0.9856 ± 0.0072 |
| AATGGCGTTG | 1 ± 0.057 |
| TGATGGGACT | 1.01 ± 0.029 |
| GAAATATCAA | 0.974 ± 0.039 |
| CTTATTAGGG | 0.986 ± 0.021 |
| AGGCGCTCTG | 0.99 ± 0.0045 |
| AAGAAGACGG | 1.23 ± 0.35 |
| TTTTCGACTA | 0.97 ± 0.043 |
| TAATCCACGG | 1.05 ± 0.064 |
| GGAATCAGGA | 0.991 ± 0.011 |

| Sequence | switch fluorescence ratio |
| --- | --- |
| GAGTACTGTT | 0.972 ± 0.045 |
| GAATGGTGGG | 0.988 ± 0.019 |
| AATTGTTTAT | 0.9998 ± 0.0092 |
| TGGAGGTCGC | 1.01 ± 0.049 |
| AATCTTGGGT | 0.972 ± 0.012 |
| ACGGGTAGAC | 1.0808 ± 0.001 |
| ACACGTGGGA | 1.015 ± 0.0032 |
| AAATACGTAT | 1.04 ± 0.046 |
| TAAGGGCGGA | 1.01 ± 0.023 |
| TACTTATCTG | 1.01 ± 0.019 |
| GCGGGGGGTA | 1.01 ± 0.03 |
| AAGCAGGCGG | 1.02 ± 0.021 |
| GACGCTTCG | 0.931 ± 0.017 |
| GTGTGGGCAG | 0.973 ± 0.0026 |
| TTTCTTTCTC | 1.02 ± 0.026 |
| ACGGCTTAGG | 1.03 ± 0.034 |
| CGGGGGTGAG | 1.04 ± 0.13 |
| TCCGAAGGTA | 1.07 ± 0.025 |
| TGATCCCGGG | 0.93018 ± 0.00028 |
